The source of these data is US20260066079A1 (published 2026).

Positions count from the first letter of the chain named.

In this assay the target is T1, TL1A in human blood (endogenous) (human, UniProt O95150 72-251, limits assumed).
T1 sequence (looked up): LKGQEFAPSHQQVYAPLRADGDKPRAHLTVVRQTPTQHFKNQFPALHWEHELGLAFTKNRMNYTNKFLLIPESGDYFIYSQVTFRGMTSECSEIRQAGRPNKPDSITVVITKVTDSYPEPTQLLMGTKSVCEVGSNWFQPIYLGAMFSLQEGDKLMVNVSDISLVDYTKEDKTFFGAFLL
In words: cell-based or functional assay.

B1: A147 (antibody, human IgG1, V domains shown)
VH: QVQLVQSGAEVKKPGASVKVSCKASGFDIQDTYMHWVKQRPGQGLEWMGRIEPASGHIKYDPKFQGRVTMTRDTSTSTVYMELSSLRSEDTAVYYCARSGGLPDWWGQGTTVTVSS
VL: EIVLTQSPGTLSLSPGERATLSCRASSSVSYMYWYQQKPGQAPRPLIYATSNLASGIPDRFSGSGSGTDFTLTISRLEPEDFAVYYCQQWEGNPRTFGGGTKLEIK
Consider B1, for which the % Inhibition (as a rule, the relative decrease from the control value, in per cent) at 1 nM Ig (inhibition of interferon gamma release in human blood) was 51.3% and the “% Inhibition at 10 nM Ig (inhibition of interferon gamma release in human blood)” value (“% Inhibition at 10 nM Ig” for short) is 72.4%.

B2: A220 (antibody, human IgG1, V domains shown)
VH: B1 VH with E52D, I58T, G66V, V79A, M81L, W105V
VL: B1 VL with L46W
For the molecule B2, the “% Inhibition at 1 nM Ig (inhibition of interferon gamma release in human blood)” value (“% Inhibition at 1 nM Ig” below) was 36.9% and the “% Inhibition at 10 nM Ig” value was 63.2%.

B3: A219 (antibody, human IgG1, V domains shown)
VH: B1 VH with E52D, I58T, G66V, M70I, M81L, W105V
VL: B1 VL
With B3, the “% Inhibition at 1 nM Ig” value was found to be 59.8% and the “% Inhibition at 10 nM Ig” value was determined as 75.2%.

B4: A212 (antibody, human IgG1, V domains shown)
VH: QVQLVQSGAEVKKPGASVKVSCKASGFDIQDTYMHWVRQRPGQGLEWIGRIDPASGHTKYDPKFQVRATITTDTSTSTAYLELSSLRSEDTAVYYCARSGGLPDVWGQGTTVTVSS
VL: B1 VL
On to B4, for which the “% Inhibition at 1 nM Ig” value is 46.8% and the “% Inhibition at 10 nM Ig” value turned out to be 71.2%.

B5: A217 (antibody, human IgG1, V domains shown)
VH: B1 VH with E52D, I58T, G66V, M70I, W105V
VL: B1 VL
Consider B5, for which the “% Inhibition at 1 nM Ig” value came out at 46% and the “% Inhibition at 10 nM Ig” value worked out at 72.2%.

B6: A213 (antibody, human IgG1, V domains shown)
VH: B4 VH with I48M, A68V, A79V, L81M
VL: B1 VL
As for B6, the “% Inhibition at 1 nM Ig” value is 48.6% and the “% Inhibition at 10 nM Ig” value came out at 69.8%.
